Assay results as given in publication PMC3973307 (Nucleic Acids Research, 2014).

How the values were obtained:
[1] = biological target: mouse mitochondrial RNA polymerase (Polrmt), wild type (mouse, UniProt Q8BKF1 42-1207); assay: MST
[2] = biological target: mouse Δ320-Polrmt (N-terminal truncation mutant lacking the amino-terminal 320 amino acids) (mouse, UniProt Q8BKF1 321-1207); assay: MST
mouse Δ320-Polrmt (N-terminal truncation mutant lacking the amino-terminal 320 amino acids), sequence (Q8BKF1 321-1207, stated change not applied): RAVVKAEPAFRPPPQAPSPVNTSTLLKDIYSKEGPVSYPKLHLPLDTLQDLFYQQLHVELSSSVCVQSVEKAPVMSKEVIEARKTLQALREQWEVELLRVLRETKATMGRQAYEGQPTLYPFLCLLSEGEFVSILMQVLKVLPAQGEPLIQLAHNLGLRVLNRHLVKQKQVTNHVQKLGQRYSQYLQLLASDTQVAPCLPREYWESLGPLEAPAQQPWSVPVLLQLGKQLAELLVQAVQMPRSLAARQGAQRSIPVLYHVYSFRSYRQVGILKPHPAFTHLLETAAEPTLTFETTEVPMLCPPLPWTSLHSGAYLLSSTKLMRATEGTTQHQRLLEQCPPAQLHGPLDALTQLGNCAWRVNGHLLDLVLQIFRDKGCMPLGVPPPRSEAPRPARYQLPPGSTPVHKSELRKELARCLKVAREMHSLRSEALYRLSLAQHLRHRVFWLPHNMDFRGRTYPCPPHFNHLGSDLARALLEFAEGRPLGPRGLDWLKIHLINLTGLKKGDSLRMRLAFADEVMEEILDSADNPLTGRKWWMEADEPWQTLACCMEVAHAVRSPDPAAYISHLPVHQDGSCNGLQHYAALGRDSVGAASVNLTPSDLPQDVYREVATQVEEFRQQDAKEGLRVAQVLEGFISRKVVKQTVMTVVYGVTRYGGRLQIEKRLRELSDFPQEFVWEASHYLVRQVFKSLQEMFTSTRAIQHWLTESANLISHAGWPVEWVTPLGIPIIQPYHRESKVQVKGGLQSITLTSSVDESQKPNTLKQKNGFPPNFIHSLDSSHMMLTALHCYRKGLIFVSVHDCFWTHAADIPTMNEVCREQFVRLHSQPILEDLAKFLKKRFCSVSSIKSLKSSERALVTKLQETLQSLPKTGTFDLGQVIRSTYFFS

mouse mitochondrial RNA polymerase (Polrmt), wild type, sequence (Q8BKF1 42-1207): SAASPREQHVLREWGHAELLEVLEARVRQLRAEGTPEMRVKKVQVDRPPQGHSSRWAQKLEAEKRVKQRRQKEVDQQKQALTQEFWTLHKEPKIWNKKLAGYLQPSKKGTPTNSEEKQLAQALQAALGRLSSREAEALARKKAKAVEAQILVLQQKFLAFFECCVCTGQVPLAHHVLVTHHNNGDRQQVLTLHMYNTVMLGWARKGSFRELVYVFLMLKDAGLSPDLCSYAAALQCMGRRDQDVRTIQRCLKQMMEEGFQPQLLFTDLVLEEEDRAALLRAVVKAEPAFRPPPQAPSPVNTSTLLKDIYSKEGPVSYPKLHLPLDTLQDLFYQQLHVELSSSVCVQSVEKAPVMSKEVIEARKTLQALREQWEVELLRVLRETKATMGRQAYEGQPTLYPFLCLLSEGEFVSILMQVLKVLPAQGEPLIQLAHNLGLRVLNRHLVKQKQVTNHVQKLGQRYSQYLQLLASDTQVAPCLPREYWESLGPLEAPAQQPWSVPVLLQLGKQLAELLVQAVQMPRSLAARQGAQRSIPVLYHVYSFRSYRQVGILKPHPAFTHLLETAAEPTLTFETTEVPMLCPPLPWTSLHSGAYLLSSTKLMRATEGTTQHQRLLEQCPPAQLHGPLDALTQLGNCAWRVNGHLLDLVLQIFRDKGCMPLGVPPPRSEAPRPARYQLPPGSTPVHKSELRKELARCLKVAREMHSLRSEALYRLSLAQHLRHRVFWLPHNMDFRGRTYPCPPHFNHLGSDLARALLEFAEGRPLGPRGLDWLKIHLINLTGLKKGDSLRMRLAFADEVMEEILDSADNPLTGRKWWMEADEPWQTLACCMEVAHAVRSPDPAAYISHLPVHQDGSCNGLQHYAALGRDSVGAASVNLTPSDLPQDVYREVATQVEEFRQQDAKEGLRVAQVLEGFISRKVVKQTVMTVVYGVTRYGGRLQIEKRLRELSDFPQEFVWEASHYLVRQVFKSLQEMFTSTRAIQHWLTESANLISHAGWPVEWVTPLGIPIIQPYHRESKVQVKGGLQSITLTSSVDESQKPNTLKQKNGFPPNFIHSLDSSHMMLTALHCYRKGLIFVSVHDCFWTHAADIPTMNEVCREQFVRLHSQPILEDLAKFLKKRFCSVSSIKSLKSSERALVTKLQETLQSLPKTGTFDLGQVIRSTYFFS

- Kd [1]: 105 ± 1.2 nM
- Kd [2]: 49.4 ± 1.1 nM
B1: mouse mitochondrial transcription factor B2 (Tfb2m) (natural protein, UniProt Q3TL26 44-396, looked up)
chain: SDFNIEPLPDSDLEESSPWTSRNRSEPTRHIACKKAARNLVRDLLEHQNPSRQIILECNPGPGILTGALLKAGARVVAFESEKTFIPHLEPLQRNMDGELQVVHCDFFKMDPRYQEVVRPDVSSQAIFQNLGIKAVPWSAGVPIKVFGILPYKHERRILWKILFDLYSCESIYRYGRVELNMFVSEKEFRKLIATPKRPDLYQVMAVLWQVACDVKFLHMEPWSSFSVHTENGHLEKSKHGESVNLLKQNLYLVRMTPRRTLFTENLSPLNYDIFFHLVKHCFGKRNAPIIRHLRSLSTVDPINILRQIRKNPGDTAARMYPHDFKKLFETIEQSEDSVFKWIYDYCPEDMEF
modifications: amine-labelled with NT-647 dye
